The results in this text go back to the supplement of paper PMC11246515.

± gives the standard deviation of the averaged measurements.

A short description of this data set: total protein half-life in vivo (active degradation + dilution); higher = more stable protein.
[1] abbreviates: E. coli NCM3722 delta-clpP delta-lon delta-hslV, growth: N-lim chemostat, doubling time 6 h.
Setting [2] is: E. coli NCM3722 delta-clpP, growth: N-lim chemostat, doubling time 6 h.
[3] abbreviates: E. coli NCM3722 delta-hslV, growth: N-lim chemostat, doubling time 6 h.
Setting [4] is: E. coli NCM3722 delta-lon, growth: N-lim chemostat, doubling time 6 h.
Where [5] appears, read: E. coli NCM3722 delta-smpB, growth: N-lim chemostat, doubling time 6 h.
The mark [6] stands for this setting: wild type E. coli NCM3722, growth: C-lim chemostat, doubling time 3 h.
Where [7] appears, read: wild type E. coli NCM3722, growth: C-lim chemostat, doubling time 6 h.
Where [8] appears, read: wild type E. coli NCM3722, growth: C-lim chemostat, doubling time 12 h.
Where [9] appears, read: wild type E. coli NCM3722, growth: N-lim chemostat, doubling time 6 h.
Where [10] appears, read: wild type E. coli NCM3722, growth: N-lim chemostat, doubling time 12 h.
The mark [11] stands for this setting: wild type E. coli NCM3722, growth: P-lim chemostat, doubling time 6 h.
The mark [12] stands for this setting: wild type E. coli NCM3722, growth: P-lim chemostat, doubling time 12 h.

Take “MAKEKKRGFFSWLGFGQKEQTPEKETEVQNEQPVVEEIVQAQEPVKASEQAVEEQPQAHTEAEAETFAADVVEVTEQVAESEKAQPEAEVVAQPEPVVEETPEPVAIEREELPLPEDVNAEAVSPEEWQAEAETVEIVEAAEEEAAKEEITDEELETALAAEAAEEAVMVVPPAEEEQPVEEIAQEQEKPTKEGFFARLKRSLLKTKENLGSGFISLFRGKKIDDDLFEELEEQLLIADVGVETTRKIITNLTEGASRKQLRDAEALYGLLKEEMGEILAKVDEPLNVEGKAPFVILMVGVNGVGKTTTIGKLARQFEQQGKSVMLAAGDTFRAAAVEQLQVWGQRNNIPVIAQHTGADSASVIFDAIQAAKARNIDVLIADTAGRLQNKSHLMEELKKIVRVMKKLDVEAPHEVMLTIDASTGQNAVSQAKLFHEAVGLTGITLTKLDGTAKGGVIFSVADQFGIPIRYIGVGERIEDLRPFKADDFIEALFARED”: the “total protein half-life in vivo” value reads like this: under setting [1], 5.949 ± 0.013 h; under setting [2], 6.16 ± 0.62 h; under setting [3], 6.29 ± 0.82 h; under setting [4], 5.53 ± 0.3 h; under setting [5], 5.61 ± 0.034 h; under setting [6], 3.038 ± 0.019 h. Moreover, the “total protein half-life in vivo” value by setting is: under setting [7], 5.835 ± 0.012 h; under setting [8], 11.1 ± 1.8 h; under setting [9], 5.94 ± 0.28 h; under setting [10], 10.7 ± 0.25 h; under setting [11], 5.64 ± 0.21 h; under setting [12], 11.92 ± 0.0035 h.
“MPKLVTWMNNQRVGELTKLANGAHTFKYAPEWLASRYARPLSLSLPLQRGNITSDAVFNFFDNLLPDSPIVRDRIVKRYHAKSRQPFDLLSEIGRDSVGAVTLIPEDETVTHPIMAWEKLTEARLEEVLTAYKADIPLGMIREENDFRISVAGAQEKTALLRIGNDWCIPKGITPTTHIIKLPIGEIRQPNATLDLSQSVDNEYYCLLLAKELGLNVPDAEIIKAGNVRALAVERFDRRWNAERTVLLRLPQEDMCQTFGLPSSVKYESDGGPGIARIMAFLMGSSEALKDRYDFMKFQVFQWLIGATDGHAKNFSVFIQAGGSYRLTPFYDIISAFPVLGGTGIHISDLKLAMGLNASKGKKTAIDKIYPRHFLATAKVLRFPEVQMHEILSDFARMIPAALDNVKTSLPTDFPENVVTAVESNVLRLHGRLSREYGSK”: the “total protein half-life in vivo” value is 5.44 ± 0.06 h under setting [1]; 5.63 ± 0.078 h under setting [3]; 5.73 ± 0.54 h under setting [4]; 5.22 ± 0.39 h under setting [5]; 3 ± 0.061 h under setting [6]; 5.65 ± 0.24 h under setting [7]. Also, the “total protein half-life in vivo” value is, setting by setting: under setting [8], 10.8 ± 0.14 h; under setting [9], 5.21 ± 0.73 h; under setting [10], 9.66 ± 1.8 h; under setting [11], 6.37 ± 0.53 h.
Take “MAYKHILIAVDLSPESKVLVEKAVSMARPYNAKVSLIHVDVNYSDLYTGLIDVNLGDMQKRISEETHHALTELSTNAGYPITETLSGSGDLGQVLVDAIKKYDMDLVVCGHHQDFWSKLMSSARQLINTVHVDMLIVPLRDEEE [P0AED0]”: the “total protein half-life in vivo” value runs as follows: under setting [1], 3.96 h; under setting [2], 4.94 ± 0.073 h; under setting [3], 4.31 ± 0.27 h; under setting [4], 4.3 ± 0.64 h; under setting [5], 4.52 ± 0.15 h; under setting [6], 3.34 ± 0.46 h. Also, the “total protein half-life in vivo” value runs as follows: under setting [7], 5.16 ± 0.1 h; under setting [8], 10.7 ± 1.6 h; under setting [9], 4.305 ± 0.0018 h; under setting [11], 5.92 ± 0.084 h; under setting [12], 9.86 ± 1.9 h.
Take “MINVLIIDDDAMVAELNRRYVAQIPGFQCCGTASTLEKAKEIIFNSDTPIDLILLDIYMQKENGLDLLPVLHNARCKSDVIVISSAADAATIKDSLHYGVVDYLIKPFQASRFEEALTGWRQKKMALEKHQYYDQAELDQLIHGSSSNEQDPRRLPKGLTPQTLRTLCQWIDAHQDYEFSTDELANEVNISRVSCRKYLIWLVNCHILFTSIHYGVTGRPVYRYRIQAEHYSLLKQYCQ [P0AD01]”: the “total protein half-life in vivo” value is, setting by setting: under setting [1], 5.41 ± 0.33 h; under setting [2], 2.86 h; under setting [3], 4.1 ± 0.41 h; under setting [4], 3.42 ± 0.16 h; under setting [5], 3.1 ± 0.27 h; under setting [6], 1.69 ± 0.17 h. Also, the “total protein half-life in vivo” value runs as follows: under setting [7], 3.27 ± 0.38 h; under setting [8], 5.01 ± 0.094 h; under setting [9], 3.51 ± 0.13 h; under setting [10], 5.76 ± 0.53 h; under setting [11], 1.58 h; under setting [12], 3.84 ± 0.61 h.
For “MSVVISDAWRQRFGGTARLYGEKALQLFADAHICVVGIGGVGSWAAEALARTGIGAITLIDMDDVCVTNTNRQIHALRDNVGLAKAEVMAERIRQINPECRVTVVDDFVTPDNVAQYMSVGYSYVIDAIDSVRPKAALIAYCRRNKIPLVTTGGAGGQIDPTQIQVTDLAKTIQDPLAAKLRERLKSDFGVVKNSKGKLGVDCVFSTEALVYPQSDGTVCAMKATAEGPKRMDCASGFGAATMVTATFGFVAVSHALKKMMAKAARQG”, the “total protein half-life in vivo” value under setting [1] came to 4.94 ± 0.44 h; the “total protein half-life in vivo” value under setting [3] was 3.85 ± 1.2 h; the “total protein half-life in vivo” value under setting [5] is 5.05 ± 0.58 h; the “total protein half-life in vivo” value under setting [6] was 3.36 ± 0.59 h; the “total protein half-life in vivo” value under setting [7] turned out to be 5.77 ± 0.26 h; the “total protein half-life in vivo” value under setting [8] stood at 9.6 ± 0.78 h. The “total protein half-life in vivo” value is, setting by setting: under setting [9], 4.87 ± 0.32 h; under setting [10], 6.86 ± 1.1 h; under setting [11], 5.2 ± 0.15 h; under setting [12], 11.79 ± 0.028 h.
As to “MTQQPQAKYRHDYRAPDYQITDIDLTFDLDAQKTVVTAVSQAVRHGASDAPLRLNGEDLKLVSVHINDEPWTAWKEEEGALVISNLPERFTLKIINEISPAANTALEGLYQSGDALCTQCEAEGFRHITYYLDRPDVLARFTTKIIADKIKYPFLLSNGNRVAQGELENGRHWVQWQDPFPKPCYLFALVAGDFDVLRDTFTTRSGREVALELYVDRGNLDRAPWAMTSLKNSMKWDEERFGLEYDLDIYMIVAVDFFNMGAMENKGLNIFNSKYVLARTDTATDKDYLDIERVIGHEYFHNWTGNRVTCRDWFQLSLKEGLTVFRDQEFSSDLGSRAVNRINNVRTMRGLQFAEDASPMAHPIRPDMVIEMNNFYTLTVYEKGAEVIRMIHTLLGEENFQKGMQLYFERHDGSAATCDDFVQAMEDASNVDLSHFRRWYSQSGTPIVTVKDDYNPETEQYTLTISQRTPATPDQAEKQPLHIPFAIELYDNEGKVIPLQKGGHPVNSVLNVTQAEQTFVFDNVYFQPVPALLCEFSAPVKLEYKWSDQQLTFLMRHARNDFSRWDAAQSLLATYIKLNVARHQQGQPLSLPVHVADAFRAVLLDEKIDPALAAEILTLPSVNEMAELFDIIDPIAIAEVREALTRTLATELADELLAIYNANYQSEYRVEHEDIAKRTLRNACLRFLAFGETHLADVLVSKQFHEANNMTDALAALSAAVAAQLPCRDALMQEYDDKWHQNGLVMDKWFILQATSPAANVLETVRGLLQHRSFTMSNPNRIRSLIGAFAGSNPAAFHAEDGSGYLFLVEMLTDLNSRNPQVASRLIEPLIRLKRYDAKRQEKMRAALEQLKGLENLSGDLYEKITKALA”, the “total protein half-life in vivo” value was 5.11 ± 0.53 h under setting [1]; 4.45 ± 0.1 h under setting [2]; 4.27 ± 0.086 h under setting [3]; 4.48 ± 0.29 h under setting [4]; 4.38 ± 0.084 h under setting [5]; 3.05 ± 0.19 h under setting [6]. Further, the “total protein half-life in vivo” value came to 5.55 ± 0.11 h under setting [7]; 10.5 ± 0.56 h under setting [8]; 4.36 ± 0.11 h under setting [9]; 6.63 ± 0.16 h under setting [10]; 5.89 ± 0.069 h under setting [11]; 11.3 ± 0.68 h under setting [12].
Consider “MDNVELSPATRWGMIATGLLQGLVCYLLIAWLSGKNHSWIVYGVPATVAFSSVLLFSVISFKQKRLWGWLALVFIATLGMSGWLKWQTDGMNPWRAEKALWDFGCYLLLMAMLLLPWIQQSLRIRNDSSRYRYFYQSVWHNVLILLVIFLANGLTWLVLLLWSELFKLVGITFFNTLFFATDWFIYLTLGLVTALAVILARTQSRLIDSIQKLFTLIATGLLPLVSLLTLMFIITLPFTGLSAISRHISAAGLLLTLAFLQLILMAIVRDPQKASLPWTGPLRCLIKTALLVAPLYVFVAAWALWLRVAQYGWTVDRLQGVLAVLVLLVWSLGYFVSIVWRKGQNPVVLQGKVNLAVSLLVLVILVLLNSPVLDSMRISVNSHMARYQSGKNTSDQVTIYMLEQSGRYGRAALESLKSDAGFMKDPKRARDLLMALDGEQHLQQQVSEKVLADNVLIAPGSVKPDATFWSALIQDRYNVMTCIEKDACVLVEQDLNSDGQAERILFAFNDDRVIVYGFDSDRKEWDALDMSLLPNEITKEKLLTAAKDGKLGTKPKAWRDLVVDGERLNVNLNE”, for which the “total protein half-life in vivo” value under setting [1] was determined as 4.79 h; the “total protein half-life in vivo” value under setting [2] stood at 3.51 h; the “total protein half-life in vivo” value under setting [3] was determined as 3.21 h; the “total protein half-life in vivo” value under setting [4] amounted to 3.27 h; the “total protein half-life in vivo” value under setting [5] is 2.97 ± 0.52 h; the “total protein half-life in vivo” value under setting [6] was 3.78 h. Moreover, the “total protein half-life in vivo” value reads like this: under setting [7], 3.86 ± 0.18 h; under setting [8], 6.23 h; under setting [12], 3.39 h.
